Biological target: FXa/TF/FVIIa

Which secreted FXa/TF/FVIIa-dependent chromogenic TFPI- activity does the source give for “TFPI1-161 -117Gln (non-glycosylated variant of human tissue factor pathway inhibitor, first 161 amino acids, Asn117 replaced by Gln)” here?
Its secreted FXa/TF/FVIIa-dependent chromogenic TFPI- activity is 1 U/ml·OD.

Source: patent US5726038
